Assay results from publication PMC7954794, “Protein context shapes the specificity of SH3 domain-mediated interactions in vivo” (Nature Communications, 2021).

B1: YDL065C (protein, UniProt Q07418 1-339, looked up)
Peroxisomal membrane protein …: MNENEYDNFDDLDDLLDEDPTKLDEAEPDDVQAKGSVYNDSENKEKNAESKDSDGVQVANESEEDPELKEMMVDLQNEFANLMKNNGNENNVKTEDFNKLISALEEAAKVPHQQMEQGCSSLKSNSTDKGTVNGSNPGFKNIVSNTLDRLKENGNKVDTSLAEETKESQRSGQNNNIDDILSQLLDQMVASGGKESAENQFDLKDGEMDDAITKILDQMTSKEVLYEPMKEMRSEFGVWFQENGENEEHKEKIGTYKRQFNIVDEIVNIYELKDYDELKHKDRVTELLDELEQLGDSPIRSANSPLKHGNEEEELMKMLEIDGNDPNLGNLDKELTDGC
B2: YLR314C (protein, UniProt P32457 2-520, looked up)
Cell division control protein …: SLKEEQVSIKQDPEQEERQHDQFNDVQIKQESQDHDGVDSQYTNGTQNDDSERFEAAESDVKVEPGLGMGITSSQSEKGQVLPDQPEIKFIRRQINGYVGFANLPKQWHRRSIKNGFSFNLLCVGPDGIGKTTLMKTLFNNDDIEANLVKDYEEELANDQEEEEGQGEGHENQSQEQRHKVKIKSYESVIEENGVKLNLNVIDTEGFGDFLNNDQKSWDPIIKEIDSRFDQYLDAENKINRHSINDKRIHACLYFIEPTGHYLKPLDLKFMQSVYEKCNLIPVIAKSDILTDEEILSFKKTIMNQLIQSNIELFKPPIYSNDDAENSHLSERLFSSLPYAVIGSNDIVENYSGNQVRGRSYPWGVIEVDNDNHSDFNLLKNLLIKQFMEELKERTSKILYENYRSSKLAKLGIKQDNSVFKEFDPISKQQEEKTLHEAKLAKLEIEMKTVFQQKVSEKEKKLQKSETELFARHKEMKEKLTKQLKALEDKKKQLELSINSASPNVNHSPVPTKKKGFLR
B3: YDL225W (protein, UniProt Q07657 2-551, looked up)
Seventh homolog of septin 1: STASTPPINLFRRKKEHKRGITYTMLLCGPAGTGKTAFANNLLETKIFPHKYQYGKSNASISSNPEVKVIAPTKVVSFNSKNGIPSYVSEFDPMRANLEPGITITSTSLELGGNKDQGKPEMNEDDTVFFNLIMTHGIGENLDDSLCSEEVMSYLEQQFDIVLAEETRIKRNPRFEDTRVHVALYFIEPTGHGLREVDVELMKSISKYTNVLPIITRADSFTKEELTQFRKNIMFDVERYNVPIYKFEVDPEDDDLESMEENQALASLQPFAIITSDTRDSEGRYVREYPWGIISIDDDKISDLKVLKNVLFGSHLQEFKDTTQNLLYENYRSEKLSSVANAEEIGPNSTKRQSNAPSLSNFASLISTGQFNSSQTLANNLRADTPRNQVSGNFKENEYEDNGEHDSAENEQEMSPVRQLGREIKQENENLIRSIKTESSPKFLNSPDLPERTKLRNISETVPYVLRHERILARQQKLEELEAQSAKELQKRIQELERKAHELKLREKLINQNKLNGSSSSINSLQQSTRSQIKKNDTYTDLASIASGRD
B4: YJR076C (protein, UniProt P32458 2-415, looked up)
Cell division control protein …: SGIIDASSALRKRKHLKRGITFTVMIVGQSGSGRSTFINTLCGQQVVDTSTTILLPTDTSTEIDLQLREETVELEDDEGVKIQLNIIDTPGFGDSLDNSPSFEIISDYIRHQYDEILLEESRVRRNPRFKDGRVHCCLYLINPTGHGLKEIDVEFIRQLGSLVNIIPVISKSDSLTRDELKLNKKLIMEDIDRWNLPIYNFPFDEDEISDEDYETNMYLRTLLPFAIIGSNEVYEMGGDVGTIRGRKYPWGILDVEDSSISDFVILRNALLISHLHDLKNYTHEILYERYRTEALSGESVAAESIRPNLTKLNGSSSSSTTTRRNTNPFKQSNNINNDVLNPASDMHGQSTGENNETYMTREEQIRLEEERLKAFEERVQQELLLKRQELLQREKELREIEARLEKEAKIKQEE
B5: YLR191W (protein)
chain: EFARALYDFVPENPEMEVALKKGDLMAILSKKDPLGRDSDWWKVRTKNGNIGYIPYNYIEIIK
B6: YBR102C (protein, UniProt P38261 1-753, looked up)
Exocyst complex component …: MVEFSLKKARNNWKHVKKSASSPAKQKTPPSPAKPKQKTKKNPYSDLKDPATSYTLPTINARERSRVATSMQRRLSIHNTNYAPPTLDYSMPLPDMPNMIVPNDNVDSSHNNSSFTTENESVSSKGPSNSLNLSTADLSLNDSSYNKVPARSAMRNTVNPSGSNDPFNNSTSLRKMLANPHFNAKDFVHDKLGNASAITIDKFTSNLTDLSIQVQEEVKLNINKSYNEIMTVNNDLNVAMLELKRVRANINDLNEVLDQCTKIAEKRLQLQDQIDQERQGNFNNVESHSNSPALLPPLKAGQNGNLMRRDRSSVLILEKFWDTELDQLFKNVEGAQKFINSTKGRHILMNSANWMELNTTTGKPLQMVQIFILNDLVLIADKSRDKQNDFIVSQCYPLKDVTVTQEEFSTKRLLFKFSNSNSSLYECRDADECSRLLDVIRKAKDDLCDIFHVEEENSKRIRESFRYLQSTQQTPGRENNRSPNKNKRRSMGGSITPGRNVTGAMDQYLLQNLTLSMHSRPRSRDMSSTAQRLKFLDEGVEEIDIELARLRFESAVETLLDIESQLEDLSERISDEELMLLNLISLKIEQRREAISSKLSQSILSSNEIVHLKSGTENMIKLGLPEQALDLFLQNRSNFIQDLILQIGSVDNPTNYLTQLAVIRFQTIKKTVEDFQDIFKELGAKISSILVDWCSDEVDNHFKLIDKQLLNDEMLSPGSIKSSRKQIDGLKAVGLDFVYKLDEFIKKNSDKIR
B7: YOL147C (protein, UniProt Q12462 2-236, looked up)
Peroxisomal membrane protein …: VCDTLVYHPSVTRFVKFLDGSAGREKVLRLLQYLARFLAVQNSSLLARQLQAQFTTVRKFLRFLKPLNHLQAAAKFYDNKLASDNVVRVCNVLKNIFFAAYLSLDQVNLLRILKVIPVTVLTGKKIPRWSNWCWLFGLLSGLAMDLRKIQTSHAQIAAFVKAKSQSQGDEHEDHKKVLGKAYQDRYTALRRLFWDAADSFIVLNNLGYLSSNEEYVALSGVVTSILGMQDMWKAT

System: ABP1
Assay: DHFR-PCA on solid medium, bait ABP1 (Fig. 1B)
Assay type: cell-based, Saccharomyces cerevisiae
Settings: bait ABP1, label = prey; 2-4 replicates
From the text: (§1) Supplement 41467_2021_21873_MOESM8_ESM.xlsx, sheet "Fig1B" | column: medsize; medrep; Ratio; Score

Row | Molecule | medrep (log2 median colony size normalized to plate background, PCA score)
1 | B1 | 3.518
2 | B2 | 4.381
3 | B3 | 2.276
4 | B4 | 2.021

Same assay, conditions: bait ABP1, label = prey; only significant differences showed; PPIs completely lost have a ratio of 0.1 and the gained PPIs 2.5

Row | Molecule | Ratio (SH3-deleted/WT medrep)
5 | B1 | 1.321
6 | B4 | 1.374

System: BEM1-1
Assay: DHFR-PCA on solid medium, bait BEM1-1 (Fig. 1B)
Assay type: cell-based, Saccharomyces cerevisiae
Settings: bait BEM1-1, label = prey; 2-8 replicates
From the text: as §1

Row | Molecule | medrep (log2 median colony size normalized to plate background, PCA score)
7 | B1 | 3.086
8 | B2 | 3.511
9 | B5 | 3.807
10 | B3 | 2.78
11 | B6 | 1.504
12 | B7 | 4.705
13 | B4 | 3.2032

Same assay, conditions: bait BEM1-1, label = prey; only significant differences showed; PPIs completely lost have a ratio of 0.1 and the gained PPIs 2.5

Row | Molecule | Ratio (SH3-deleted/WT medrep)
14 | B1 | 2.5
15 | B5 | 2.5
16 | B6 | 0.1
17 | B7 | 2.5

System: BEM1-2
Assay: DHFR-PCA on solid medium, bait BEM1-2 (Fig. 1B)
Assay type: cell-based, Saccharomyces cerevisiae
Settings: bait BEM1-2, label = prey; 2-8 replicates
From the text: as §1

Row | Molecule | medrep (log2 median colony size normalized to plate background, PCA score)
18 | B2 | 1.7566
19 | B3 | 2.78
20 | B6 | 1.504
21 | B4 | 1.843

Same assay, conditions: bait BEM1-2, label = prey; only significant differences showed; PPIs completely lost have a ratio of 0.1 and the gained PPIs 2.5

Row | Molecule | Ratio (SH3-deleted/WT medrep)
22 | B2 | 0.5003
23 | B3 | 0.1
24 | B6 | 0.1
25 | B4 | 0.5753
